Reference: paper PMC4730555

Tests used:
[1] = molecular target: ectodomain of RGMB (eRGMB), wild type (human) (UniProt Q6NW40); experiment: AUC
[2] = molecular target: ectodomain of RGMB (eRGMB), wild type (human) (UniProt Q6NW40); experiment: multiangle light scattering
eRGMB-P206N (human) = eRGMB-P206N (human) (UniProt Q6NW40); experiment: AUC
[3] = molecular target: ectodomain of RGMB (eRGMB), wild type (human) (UniProt Q6NW40); experiment: AUC; remark: listed apart in the source
[4] = molecular target: RGMA, full-length ectodomain (human) (UniProt Q96B86); experiment: SPR
Chain of UniProt Q96B86 (Q96B86 48-424): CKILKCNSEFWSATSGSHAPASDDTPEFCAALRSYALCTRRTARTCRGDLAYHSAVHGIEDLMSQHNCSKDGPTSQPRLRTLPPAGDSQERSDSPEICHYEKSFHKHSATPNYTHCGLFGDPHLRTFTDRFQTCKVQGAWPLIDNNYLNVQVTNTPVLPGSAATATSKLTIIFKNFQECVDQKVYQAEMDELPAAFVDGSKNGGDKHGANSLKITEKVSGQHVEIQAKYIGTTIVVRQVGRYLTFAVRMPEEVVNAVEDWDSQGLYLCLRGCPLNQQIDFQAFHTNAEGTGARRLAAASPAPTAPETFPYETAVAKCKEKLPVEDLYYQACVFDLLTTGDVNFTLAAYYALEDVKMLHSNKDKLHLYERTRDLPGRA

[5] = molecular target: RGMC, full-length ectodomain (human) (UniProt Q6ZVN8); experiment: SPR
Chain of UniProt Q6ZVN8 (Q6ZVN8 36-400): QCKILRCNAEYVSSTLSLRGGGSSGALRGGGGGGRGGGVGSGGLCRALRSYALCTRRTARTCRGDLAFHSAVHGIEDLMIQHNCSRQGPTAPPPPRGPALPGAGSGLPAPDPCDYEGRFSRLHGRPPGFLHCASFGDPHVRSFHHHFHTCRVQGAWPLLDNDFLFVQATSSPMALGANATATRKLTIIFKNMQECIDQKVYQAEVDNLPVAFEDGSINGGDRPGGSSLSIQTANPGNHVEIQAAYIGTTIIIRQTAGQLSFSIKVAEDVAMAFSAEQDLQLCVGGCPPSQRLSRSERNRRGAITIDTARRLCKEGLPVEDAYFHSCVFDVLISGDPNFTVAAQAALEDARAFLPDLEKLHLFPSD

[6] = molecular target: ectodomain of RGMB (eRGMB), wild type (human) (UniProt Q6NW40); experiment: SPR

stoichiometry N [1] | stoichiometry N [2] | stoichiometry N (eRGMB-P206N (human)) | stoichiometry N [3] | interaction relative to the equivalent NEO1 construct [4] [fold] | interaction relative to the equivalent NEO1 construct [5] [fold] | interaction relative to the equivalent NEO1 construct [6] [fold] | Substance
1 | 1 | 1 | 1 | – | – | – | NEO1_FN56M (from UniProt P97798 883-1136) (domain or fragment)
– | – | – | – | 0.001 | 0.001 | 0.001 | full-length DCC ectodomain (from UniProt P43146 26-1097) (domain or fragment)
